According to patent US9150655B2, “Anti-C-met antibody and methods of use thereof” (ACADEMIA SINICA, priority 2010, dated 2015):

How the values were obtained:
[1] = biological target: T1, endogenous c-Met in cancer cells (Homo sapiens, UniProt P08581); assay: ELISA of scFv binding to human cancer cell lines; type: cell-based
T1 construct: endogenous in cells
Experimental: (§1) The binding activities of anti-c-Met scFvs to endogenous c-Met were analyzed in cancer cells by ELISA (FIG. 9, panel A). […] Normal mouse IgG was used as a control antibody. FACS analysis was performed to verify that […] anti-c-Met scFvs also bound VEGF-stimulated HUVECs. Anti-CD31 antibody and control scFv were used a positive and negative control, respectively (FIG. 9, panel B).

c-Met932-Fc protein = biological target: T2, c-Met932-Fc protein (Homo sapiens, UniProt P08581); assay: Binding kinetics of anti-c-Met scFv by SPR (BIAcore)
T2 construct: DNA fragments encoding amino acid residues 1 to 932 and 1 to 567 of c-Met were amplified by PCR; made in house; host or cells: 293T cells, transient transfection, protein G purification from supernatant
T2 sequence (P08581 25-307): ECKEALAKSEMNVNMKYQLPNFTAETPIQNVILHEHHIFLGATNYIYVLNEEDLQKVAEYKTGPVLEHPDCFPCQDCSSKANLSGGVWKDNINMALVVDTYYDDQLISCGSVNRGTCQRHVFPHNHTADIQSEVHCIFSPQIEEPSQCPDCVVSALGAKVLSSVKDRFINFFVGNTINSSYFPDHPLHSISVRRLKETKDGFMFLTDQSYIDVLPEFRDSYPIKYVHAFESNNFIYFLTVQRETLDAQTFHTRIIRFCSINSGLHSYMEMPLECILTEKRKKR
T2 sequence (P08581 308-932): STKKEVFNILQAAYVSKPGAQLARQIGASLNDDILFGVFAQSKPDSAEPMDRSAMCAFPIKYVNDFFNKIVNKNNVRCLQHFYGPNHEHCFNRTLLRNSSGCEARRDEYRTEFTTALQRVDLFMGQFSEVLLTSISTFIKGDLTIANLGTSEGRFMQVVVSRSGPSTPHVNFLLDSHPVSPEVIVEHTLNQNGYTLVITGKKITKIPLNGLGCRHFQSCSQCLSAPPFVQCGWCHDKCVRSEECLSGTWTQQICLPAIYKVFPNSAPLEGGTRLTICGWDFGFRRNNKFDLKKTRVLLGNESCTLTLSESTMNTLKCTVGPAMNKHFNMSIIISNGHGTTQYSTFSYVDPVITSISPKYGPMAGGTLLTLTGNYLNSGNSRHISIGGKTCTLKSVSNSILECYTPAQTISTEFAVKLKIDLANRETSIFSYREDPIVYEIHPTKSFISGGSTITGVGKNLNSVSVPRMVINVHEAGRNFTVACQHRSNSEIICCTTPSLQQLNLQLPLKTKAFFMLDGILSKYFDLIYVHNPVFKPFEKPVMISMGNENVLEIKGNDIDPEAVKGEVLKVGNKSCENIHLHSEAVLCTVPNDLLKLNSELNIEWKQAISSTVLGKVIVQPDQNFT
Experimental: The affinity and kinetics of anti-c-Met scFv were measured by SRP in BIAcore X (GE healthcare). In BIAcore flowcell, 30 μg/ml of c-MetF932-Fc protein was coupled to EDC- and NHS-activated CM5 sensor chip followed by blocking with ethanolamine according to manufacturer's directions. Associated and dissociated phases were monitored for 3 and 5 min, respectively, under continuous flow of 30 μl/min using scFv concentrations ranging 5 to 200 nM. Regeneration was performed by injection of regenerate buffer (0.2 M NaCl, 10 mM glycine, pH 2.7). To determine binding constants, the sensorgrams were fit globally to a sample 1:1 interaction model using BIAevaluation software (GE healthcare).
Binding kinetic constants (Kon and Koff) and affinity of each soluble scFv for c-Met932-Fc protein were measured by Surface Plasmon Resonance (SPR).
Kon and Koff were measured by SRP in a BIAcore using purified scFvs, and the Kd was calculated by BIAevaluation software.

[2] = biological target: T3, endogenous c-Met on H460 cells (Homo sapiens, UniProt P08581); assay: FACS of scFv binding to H460 and c-Met knockdown H460 cells; type: cell-based
T3 construct: endogenous in cells; host or cells: H460 and MET-KD H460
T3 sequence (P08581 25-1390): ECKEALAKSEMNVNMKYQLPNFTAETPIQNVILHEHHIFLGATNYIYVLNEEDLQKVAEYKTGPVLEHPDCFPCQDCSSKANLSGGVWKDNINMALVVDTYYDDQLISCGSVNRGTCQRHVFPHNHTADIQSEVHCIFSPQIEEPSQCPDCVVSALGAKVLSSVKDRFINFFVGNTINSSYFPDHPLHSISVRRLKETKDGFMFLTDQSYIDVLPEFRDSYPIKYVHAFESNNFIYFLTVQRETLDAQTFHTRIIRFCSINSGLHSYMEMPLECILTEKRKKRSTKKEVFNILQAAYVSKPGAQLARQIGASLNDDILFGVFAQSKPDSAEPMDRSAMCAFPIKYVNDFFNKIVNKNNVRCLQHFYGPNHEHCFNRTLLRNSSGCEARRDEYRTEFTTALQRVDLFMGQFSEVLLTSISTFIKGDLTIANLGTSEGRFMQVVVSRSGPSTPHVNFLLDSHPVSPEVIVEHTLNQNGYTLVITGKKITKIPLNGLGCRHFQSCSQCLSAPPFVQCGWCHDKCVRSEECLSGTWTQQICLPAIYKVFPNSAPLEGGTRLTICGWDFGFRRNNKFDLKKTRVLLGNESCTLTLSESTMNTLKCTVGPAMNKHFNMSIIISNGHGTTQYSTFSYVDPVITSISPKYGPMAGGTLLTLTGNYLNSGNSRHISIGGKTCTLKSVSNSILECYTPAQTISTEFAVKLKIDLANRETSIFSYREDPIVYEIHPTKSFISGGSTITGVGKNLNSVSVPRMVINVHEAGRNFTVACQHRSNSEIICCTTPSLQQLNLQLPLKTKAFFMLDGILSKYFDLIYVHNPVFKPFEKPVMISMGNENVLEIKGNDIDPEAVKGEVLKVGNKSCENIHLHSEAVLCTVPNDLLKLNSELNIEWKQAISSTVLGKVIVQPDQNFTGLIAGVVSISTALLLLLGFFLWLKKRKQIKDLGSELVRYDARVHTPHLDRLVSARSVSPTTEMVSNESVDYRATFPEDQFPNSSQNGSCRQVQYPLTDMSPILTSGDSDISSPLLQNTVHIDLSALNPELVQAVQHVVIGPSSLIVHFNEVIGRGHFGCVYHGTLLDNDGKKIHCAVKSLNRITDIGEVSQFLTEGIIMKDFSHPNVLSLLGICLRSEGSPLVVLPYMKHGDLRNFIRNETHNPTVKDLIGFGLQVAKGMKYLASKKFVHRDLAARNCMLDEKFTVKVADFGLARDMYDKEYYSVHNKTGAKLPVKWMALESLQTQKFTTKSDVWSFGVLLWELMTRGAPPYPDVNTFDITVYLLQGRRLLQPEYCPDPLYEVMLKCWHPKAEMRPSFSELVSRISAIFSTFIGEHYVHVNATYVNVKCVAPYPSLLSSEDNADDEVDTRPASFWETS
Experimental: To further confirm that the anti-c-Met scFv would bind specifically to endogenous c-Met on human cancer cells, H460 cells and c-Met knockdown H460 cells were stained with anti-c-Met scFv, either S1 or S20, and FACS analysis was carried out (FIG. 10, panel B).

c-MetF932-Fc protein = biological target: T4, c-MetF932-Fc protein (Homo sapiens, UniProt P08581); assay: Competitive ELISA: soluble scFv inhibit HGF binding to immobilized c-Met protein
T4 construct: DNA fragments encoding amino acid residues 1 to 932 and 1 to 567 of c-Met were amplified by PCR; made in house; host or cells: 293T cells, transient transfection, protein G purification from supernatant
T4 sequence (P08581 25-307 limits assumed): as the sequence (P08581 25-307) above
T4 sequence (P08581 308-932 limits assumed): as the sequence (P08581 308-932) above
Experimental: To monitor inhibition effect of scFv, we coated the c-MetF932-Fc protein on a 96-well plate and blocked nonspecific binder with 3% BSA in PBS. 1 nM human HGF (R&D) plus varying concentrations of anti-c-Met scFv or normal mouse IgG were applied to the wells. The amount of HGF bound to c-Met was determined using goat anti-human HGF (R&D), following incubation of HRP-labeled mouse anti-goat IgG (Jackson ImmunoResearch) and OPD substrate (Sigma) plus H2O2. The absorbance was measured with 490 nm using a microplate reader. Inhibition percentage was calculated by the following equation: [(the absorbance of HGF bound without competitor)−(the absorbance of HGF bound with competitor)]/(the absorbance of HGF bound without competitor)×100%.
To test whether the three anti-c-Met scFvs could inhibit HGF binding to c-Met, the human lung cancer cell line H1993 was chosen to undergo competition ELISA (Lutterbach B et al. (2007) Cancer Res 67:2081-2088). […] HGF binding to H1993 cells without competitors was considered 100%. H1993 is known to express a high level of c-Met. When H1993 cells were incubated with HGF in the presence of the phage clones, the binding of HGF to H1993 cells was diminished by more than 90% by the anti-c-Met scFv PC1. PC20 inhibited more than 50% of HGF binding to c-Met (FIG. 2, panel A). The competitive inhibition of HGF by different concentrations of soluble scFvs was also tested. Normal mouse IgG (NMIgG) was used as a negative control. HGF binding to immobilized c-Met protein without competitors was considered 100%.

c-Met567-Fc protein = biological target: T5, c-Met567-Fc protein (Homo sapiens, UniProt P08581); assay: Epitope ELISA on c-Met932-Fc and c-Met567-Fc; type: binding; conditions: immobilized recombinant proteins
T5 construct: DNA fragments encoding amino acid residues 1 to 932 and 1 to 567 of c-Met were amplified by PCR; made in house; host or cells: 293T cells, transient transfection, protein G purification from supernatant
Experimental: Therefore, binding epitopes of anti-c-Met scFvs localized within HGF binding domain of c-Met were investigated. The binding ability of anti-c-Met scFvs was examined for c-Met932-Fc protein including whole extracellular domain of c-Met, and c-Met567-Fc protein containing Sema and PSI domain, both of which have been defined as HGF binding regions (FIG. 2, panel C). The c-Met recombinant proteins were immobilized on titer wells, and incubated with anti-c-Met scFvs. Anti-c-Met polyclonal antibody and anti-E tag antibody was used as a positive and negative control, respectively. […] The binding intensity of S1 for c-Met932-Fc was similar to that for c-Met567-Fc.

VEGF-stimulated HUVECs = assay: FACS of scFv binding to VEGF-stimulated HUVECs; type: cell-based, human
Experimental: as §1

c-Met = biological target: T6, c-Met (Homo sapiens, UniProt P08581); assay: HGF-induced c-Met phosphorylation in A549 cells (Western blot); type: cell-based; conditions: A549 cells co-treated with HGF and S1 at 37° C. for 15 min; relative to cells without S1
T6 construct: endogenous in cells; host or cells: A549
T6 sequence (P08581 25-1390): as the sequence (P08581 25-1390) above
Experimental: Since the anti-c-Met scFv S1 presented superiorly competitive capability, whether S1 would antagonize HGF to activate c-Met in cancer cells was examined. A549 cells were co-treated with HGF and S1 at 37° C. for 15 min. Total cell lysate was subjected to Western blotting using anti-tyrosine-phosphorylated c-Met antibody and an antibody against the c-Met β-chain (c-Met). Quantification of phosphorylated c-Met was based on luminescence intensity and normalized with total c-Met.

[3] = purified scFv, c-MetF932-Fc on CM5 chip

T1 sequence (P08581 25-1390): as above

B1: S1: soluble anti-c-Met scFv corresponding to phage clone PC1; VH/VL sequences in Table 1 (protein)
scFv: MAQVQLQQSGPGLVKPSQTLSLTCDISGDSVSSNSAAWNWIRQSPSRGLEWLGRTYYRSRWYNEYAVSVRGRISINAETSKNQFSLQLNSVTPEDTAIYYCARAGFCSGGNCYPGSEDAFDLWGQGTMVTVGGGGSGGGGSGGGGSDVVMTQSPPSLSVSVGDRVTITCRASQDITNDLNWYQQKPGKAPQLLIYHASELETGVPSRFSGSGFGTDFTLTISSLQPADIATYYCQQYDDLPLTFGGGTKVEIKR
modifications: left off: small tags and cut ends
- Reactivity with A498, U2OS and NNM cells ([1]; A498, U2OS, NNM cells): did not react
- Binding to human cancer cell lines ([1]; SKOV3, Mahlavu, SAS, PC3, MDA-MB-231, HCT116, Paca-2, NPC-TW04, H1993 cells, vs control antibody): found to bind
- Kd (c-Met932-Fc protein; purified scFv 5 to 200 nM, c-MetF932-Fc coupled to CM5 chip, Kd calculated by BIAevaluation software): 6.82 nM
- Koff (c-Met932-Fc protein; [3]): 0.00134 s⁻¹
- Kon (c-Met932-Fc protein; [3]): 215000 M⁻¹ s⁻¹
- Binding activity in c-Met knockdown H460 cells ([2]; c-Met knockdown H460): dramatically decreased
- Binding to H460 cells ([2]; c-Met wildtype H460): able to bind
- IC50 (c-MetF932-Fc protein; 1 nM human HGF, immobilized c-Met protein, soluble scFv): 27.4 nM
- Inhibition of binding activity of HGF to c-Met (c-MetF932-Fc protein; different concentrations of soluble scFv): dose-dependently inhibited
- Binding to c-Met567-Fc compared to c-Met932-Fc (c-Met567-Fc protein): similar
- Binding to VEGF-stimulated HUVECs (VEGF-stimulated HUVECs): bound
- Inhibition of HGF-induced c-Met phosphorylation (c-Met): 65.7%
